From article PMC11245488

Target: extracellular domain of human AXL (corresponding to sAXL) fused to C-terminal Fc (UniProt P30530)
Test: SEC-MALS; human sAXL-Fc in solution; protein-conjugate analysis (protein 140 kDa, glycans ~25 kDa, total 165 kDa); conditions in the Supplemental Material

## extracellular domain of human AXL (corresponding to sAXL) fused to C-terminal Fc (from UniProt P30530 26-451) (Fc fusion)
  stoichiometry N: 2
